Experimental data from patent publication US20220402983A1 (Janssen / Centocor, published 2022).
*1 amine or outer side, *2 acyl side, *3 side chain or, on linkers, in order; H or OH if unused. Bridges are numbered along the chain shown (N, C = ends). Where no end group is shown, it is not given here. [ ]: non-standard residue; d: D form. dPhe(3,4-diOMe) = D-Phe with 3,4-dimethoxy, COc1ccc(C[C@@H](N[*:1])C(=O)[*:2])cc1OC; αMe2Nal = alpha-methyl-2-Nal, C[C@@](Cc1ccc2ccccc2c1)(N[*:1])C(=O)[*:2]; Phe(3,4-(OMe)2) = COc1ccc(C[C@H](N)C(=O)O)cc1OC; Trp(5-F) = N[C@@H](Cc1c[nH]c2ccc(F)cc12)C(=O)O; Trp(7-Me) = Cc1cccc2c(C[C@H](N)C(=O)O)c[nH]c12; 2Nal = N[C@@H](Cc1ccc2ccccc2c1)C(=O)O; AEF = NCCOc1ccc(C[C@H](N)C(=O)O)cc1; αMeF = C[C@](N)(Cc1ccccc1)C(=O)O; αMeE = C[C@](N)(CCC(=O)O)C(=O)O; Pen = CC(C)(S)[C@H](N)C(=O)O; αMeK = C[C@](N)(CCCCN)C(=O)O; αMeC = C[C@](N)(CS)C(=O)O; dDap = NC[C@@H](N)C(=O)O; Ac5c = NC1(C(=O)O)CCCC1; Thp = NC1(C(=O)O)CCOCC1; Abu = CC[C@H](N)C(=O)O

T1: human IL-23R (interleukin-23 receptor) (human, UniProt Q5VWK5 24-629)
T1 sequence (looked up): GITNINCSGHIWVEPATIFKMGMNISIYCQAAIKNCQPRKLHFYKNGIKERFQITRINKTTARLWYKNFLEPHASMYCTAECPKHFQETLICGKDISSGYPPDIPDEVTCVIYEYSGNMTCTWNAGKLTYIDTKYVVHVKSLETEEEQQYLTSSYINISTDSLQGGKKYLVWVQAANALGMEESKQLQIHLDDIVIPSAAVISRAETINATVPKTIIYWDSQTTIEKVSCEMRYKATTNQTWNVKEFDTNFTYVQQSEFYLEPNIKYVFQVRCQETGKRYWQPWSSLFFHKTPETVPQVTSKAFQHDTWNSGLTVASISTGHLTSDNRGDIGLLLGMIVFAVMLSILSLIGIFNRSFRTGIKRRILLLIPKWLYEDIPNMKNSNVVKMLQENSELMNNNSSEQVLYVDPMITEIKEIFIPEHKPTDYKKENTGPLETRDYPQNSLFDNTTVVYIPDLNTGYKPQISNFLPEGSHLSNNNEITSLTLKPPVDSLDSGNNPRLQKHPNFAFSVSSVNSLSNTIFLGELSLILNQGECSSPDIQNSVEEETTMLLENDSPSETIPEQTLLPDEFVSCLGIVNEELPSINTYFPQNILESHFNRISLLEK


Biological target: T1, human IL-23R (interleukin-23 receptor)
Assay: cell-based or functional assay

| Binder | PBMC pSTAT3 IC50 (nM) | pStat3 HTRF (nM), IC50, DB cells IL23R pSTAT3 cell assay |
| --- | --- | --- |
| Ac-[dR][Abu]QTWQC[AEF][2Nal][Thp]EN[αMe2Nal]-NH2 (thioether 2-7) [Compound No. 80] | 46 nM | – |
| Ac-[Pen]QTWK(Ac)[Pen][AEF][2Nal][αMeK]K(Ac)N[αMeF]-NH2 (disulfide 1-6; SMILES CC(=O)NCCCC[C@@H]1NC(=O)[C@H](Cc2c[nH]c3ccccc23)NC(=O)[C@H]([C@@H](C)O)NC(=O)[C@H](CCC(N)=O)NC(=O)[C@@H](NC(C)=O)C(C)(C)SSC(C)(C)[C@@H](C(=O)N[C@@H](Cc2ccc(OCCN)cc2)C(=O)N[C@@H](Cc2ccc3ccccc3c2)C(=O)N[C@@](C)(CCCCN)C(=O)N[C@@H](CCCCNC(C)=O)C(=O)N[C@@H](CC(N)=O)C(=O)N[C@@](C)(Cc2ccccc2)C(N)=O)NC1=O) [Compound No. 82] | 54 nM | – |
| Ac-[dR][Abu]QTWQC[AEF][2Nal][Thp][αMeE]N[dPhe(3,4-diOMe)]-NH2 (thioether 2-7) [Compound No. 79] | 25 nM | – |
| Ac-[Pen]N[dK][Trp(7-Me)]K(Ac)[Pen][AEF][2Nal][αMeK]K(Ac)N[dL]-NH2 (disulfide 1-6; SMILES CC(=O)NCCCC[C@@H]1NC(=O)[C@H](Cc2c[nH]c3c(C)cccc23)NC(=O)[C@@H](CCCCN)NC(=O)[C@H](CC(N)=O)NC(=O)[C@@H](NC(C)=O)C(C)(C)SSC(C)(C)[C@@H](C(=O)N[C@@H](Cc2ccc(OCCN)cc2)C(=O)N[C@@H](Cc2ccc3ccccc3c2)C(=O)N[C@@](C)(CCCCN)C(=O)N[C@@H](CCCCNC(C)=O)C(=O)N[C@@H](CC(N)=O)C(=O)N[C@H](CC(C)C)C(N)=O)NC1=O) [Compound No. 73] | – | 51.1 nM |
| Ac-[Pen]N[dD][Trp(7-Me)]K(Ac)[Pen][AEF][2Nal][αMeK]K(Ac)N[dL]-NH2 (disulfide 1-6; SMILES CC(=O)NCCCC[C@@H]1NC(=O)[C@H](Cc2c[nH]c3c(C)cccc23)NC(=O)[C@@H](CC(=O)O)NC(=O)[C@H](CC(N)=O)NC(=O)[C@@H](NC(C)=O)C(C)(C)SSC(C)(C)[C@@H](C(=O)N[C@@H](Cc2ccc(OCCN)cc2)C(=O)N[C@@H](Cc2ccc3ccccc3c2)C(=O)N[C@@](C)(CCCCN)C(=O)N[C@@H](CCCCNC(C)=O)C(=O)N[C@@H](CC(N)=O)C(=O)N[C@H](CC(C)C)C(N)=O)NC1=O) [Compound No. 74] | – | 73.1 nM |
| Ac-[Pen]N[dDap][Trp(7-Me)]K(Ac)[Pen][AEF][2Nal][αMeK]K(Ac)N[dL]-NH2 (disulfide 1-6; SMILES CC(=O)NCCCC[C@@H]1NC(=O)[C@H](Cc2c[nH]c3c(C)cccc23)NC(=O)[C@@H](CN)NC(=O)[C@H](CC(N)=O)NC(=O)[C@@H](NC(C)=O)C(C)(C)SSC(C)(C)[C@@H](C(=O)N[C@@H](Cc2ccc(OCCN)cc2)C(=O)N[C@@H](Cc2ccc3ccccc3c2)C(=O)N[C@@](C)(CCCCN)C(=O)N[C@@H](CCCCNC(C)=O)C(=O)N[C@@H](CC(N)=O)C(=O)N[C@H](CC(C)C)C(N)=O)NC1=O) [Compound No. 72] | – | 52.6 nM |
| Ac-[dR][Abu]QTWQC[AEF][2Nal][Thp][αMeE]N[Phe(3,4-(OMe)2)]-NH2 (thioether 2-7) [Compound No. 78] | 31 nM | – |
| [dR][Abu]QTWQ[αMeC][AEF][2Nal][Thp]EN[αMeF]-NH2 (thioether 2-7; not fully specified (N-terminus); printed as pr-[(D)Arg]-[Abu]-Q-T-W-Q-[aMeCys]-Phe[4-(2-aminoethoxy)]-[2-Nal]-[THP]-E-N-[a-MePhe]-NH2) [Compound No. 83] | 33 nM | – |
| Ac-[dR][Abu]QTWQC[AEF][2Nal][Thp][αMeE]N[Trp(5-F)]-NH2 (thioether 2-7) [Compound No. 81] | 30 nM | – |

Other lines, results leading:

| PBMC pSTAT3 IC50 (nM) | pStat3 HTRF (nM), IC50, DB cells IL23R pSTAT3 cell assay | Binder |
| --- | --- | --- |
| 7.6 nM | – | [dR][Abu]QTWQC[AEF][2Nal][Thp]EN[αMeF]-NH2 (thioether 2-7; not fully specified (N-terminus); printed as pr-[(D)Arg]-[Abu]-Q-T-W-Q-[Cys]-Phe[4-(2-aminoethoxy)]-[2-Nal]-[THP]-E-N-[a-MePhe]-NH2) [Compound No. 85] |
| 3.7 nM | – | Ac-[dR][Pen]NT[Trp(7-Me)]Q[Pen][AEF][2Nal][Thp]EN[Thp]-NH2 (disulfide 2-7; SMILES CC(=O)N[C@H](CCCNC(=N)N)C(=O)N[C@@H]1C(=O)N[C@@H](CC(N)=O)C(=O)N[C@@H]([C@@H](C)O)C(=O)N[C@@H](Cc2c[nH]c3c(C)cccc23)C(=O)N[C@@H](CCC(N)=O)C(=O)N[C@H](C(=O)N[C@@H](Cc2ccc(OCCN)cc2)C(=O)N[C@@H](Cc2ccc3ccccc3c2)C(=O)NC2(C(=O)N[C@@H](CCC(=O)O)C(=O)N[C@@H](CC(N)=O)C(=O)NC3(C(N)=O)CCOCC3)CCOCC2)C(C)(C)SSC1(C)C) [Compound No. 90] |
| 54 nM | – | Ac-[Pen]QTWK(Ac)[Pen][AEF][2Nal][αMeK]K(Ac)N[Thp]-NH2 (disulfide 1-6; SMILES CC(=O)NCCCC[C@@H]1NC(=O)[C@H](Cc2c[nH]c3ccccc23)NC(=O)[C@H]([C@@H](C)O)NC(=O)[C@H](CCC(N)=O)NC(=O)[C@@H](NC(C)=O)C(C)(C)SSC(C)(C)[C@@H](C(=O)N[C@@H](Cc2ccc(OCCN)cc2)C(=O)N[C@@H](Cc2ccc3ccccc3c2)C(=O)N[C@@](C)(CCCCN)C(=O)N[C@@H](CCCCNC(C)=O)C(=O)N[C@@H](CC(N)=O)C(=O)NC2(C(N)=O)CCOCC2)NC1=O) [Compound No. 84] |
| 3.6 nM | – | XNTXQXFXKKNX (Ac-[Pen]-N-T-[W(7-Me)]-Q-[Pen]-Phe[4-(2-aminoethoxy)]-[2-Nal]-[a-MeLys]-[Lys(Ac)]-N-[THP]-NH2; cyclized: Pen-Pen disulfide bond) [Compound No. 87] |
| 3.7 nM | – | Ac-[dR][Pen]NTWK(Ac)[Pen][AEF][2Nal][Ac5c]EN[Thp]-NH2 (disulfide 2-7; SMILES CC(=O)NCCCC[C@@H]1NC(=O)[C@H](Cc2c[nH]c3ccccc23)NC(=O)[C@H]([C@@H](C)O)NC(=O)[C@H](CC(N)=O)NC(=O)[C@@H](NC(=O)[C@@H](CCCNC(=N)N)NC(C)=O)C(C)(C)SSC(C)(C)[C@@H](C(=O)N[C@@H](Cc2ccc(OCCN)cc2)C(=O)N[C@@H](Cc2ccc3ccccc3c2)C(=O)NC2(C(=O)N[C@@H](CCC(=O)O)C(=O)N[C@@H](CC(N)=O)C(=O)NC3(C(N)=O)CCOCC3)CCCC2)NC1=O) [Compound No. 88] |
| 12 nM | – | XNTXQXFXKKNF (Ac-[Pen]-N-T-[W(7-Me)]-Q-[Pen]-Phe[4-(2-aminoethoxy)]-[2-Nal]-[a-MeLys]-[Lys(Ac)]-N-[a-MePhe]-NH2; cyclized: Pen-Pen disulfide bond) [Compound No. 89] |
